The results in this text go back to the DeepSol protein solubility set.

This data set is described as follows: soluble on expression in E. coli; label from the status in PepcDB or PDB records.
As for “MGSDKIHHHHHHMDRRDFFKTVAITGAAMTIQRSEAMEILTQTINKANGDKPDLVAVMGGEPEAMFRRAISELGGMKQFIKPGQKVVVKPNIGWDKVPELAGNTNPKLITEIIKQCFATGAKEVTVFDHTCDDWQKCYKNSGIEAAAKEAGAKVMPAHLESYYKPVDLPKGQKMKKAKIHEAILNCDVWINVPILKNHGGANLTISMKNHMGIVWDRGFFHQNDLQQCIADICTLEKKAVLNVVDAYRIMKTNGPRGRSASDVVLAKGLFISPDIVAVDTAAAKFFNQIREMPLDTVGHLAKGEALKVGTMDIDKLNVKRIKM”, the “soluble on expression in E. coli” value is “not soluble”.

In the case of “MSNSAQRDARNSRDESARASDTDRIQIAQLLAYAAEQGRLQLTDYEDRLARAYAATTYQELDRLRADLPGAAIGPRRGGECNPAPSTLLLALLGGFERRGRWNVPKKLTTFTLWGSGVLDLRYADFTSTEVDIRAYSIMGAQTILLPPEVNVEIHGHRVMGGFDRKVVGEGTRGVPTVRIRGFSLWGDVGIKRKPRKPRK”, the “soluble on expression in E. coli” value was “not soluble”.

Turning to “MDNNIDFIVTWVNGGDPDWLKKKNKYLPVNESNENMNSESRYRDFDIFKFWFRAVEKFAPWVHKIYLITDNQVPDWLDTRNSKLTVIDHRDIMDADWLPTFNSNAIELNAYKIKNLSEKFVLFNDDTILNSYVDKVDFFDENYPKDIYVESPIMATKGSVDHIMVNNVEIINEFFEKKNFYKKNLTKVFNPKIGIKLLRTLALLPSSKFAGFWNSHLPISYNKTTFETVWSNCEGKLVATSKNKFRTAYDVSHWLMRYWQLASGNYHLQNNIGKVYDLSSQNIDEVVTQLQRSHSKIICLNDNDELDDYEGVKGKLVTTLNEKFSEKSKFELLEHHHHHH”, the “soluble on expression in E. coli” value is on record as “soluble”.

On to “MIIEERKNHELNLESIDRDLRMENVRQSAEKLGWEHFARSVRRNLLEKRQTLDARTRLDVLGSLVFMKEHLPIDNDATIARKVQQLSEGLGEHCVFSTQNSGFSIRNPDVTIDIGVAEDQISTCKIGYFGQPLTDAPGALALMKNGEFSKLRDSITAILSSLPKEITLSEKNACKEAFRALDQLLIRDAADSSFTAINTGKYGFYAPRNELRSGRIYYVAEPVLIRLAEKEGKTKADASYLDLLPYIEISFFKHDKPSKLPVFTQTGEWSTFNDANVCICVRFNQGFLLSQQTIRKLSHIVPKSPLVRNYVNFYRYMTGRVGVKSNLKLLTQFPDEGDIQQQYQVDSKMLTKEDDVVAMEMYLSDFRDLSKLIETLRSEWKHASLWESILAICESSKGEQKEVNAVDMQLVLRRTEFFLQFDTDYGSMTMQIFEKSPSNYVVKTTSQITGESPSLDFDKMLTEKLNSTWSIPATLTFAITDLKCRINSVLNCVISFDSSSSSDKQHQNYWSISNNNTQLMQSAAQKSAAKCTKKKVTVLEVGPAIEPTQLVYTRENDEEFQGSLLSSFGEVDDYYVKTSTIGRTRPQPRPKREPNQLTSMDMMSAELDKSRHTMEGSMRDAQTSSFLDAARVRMKQSIGAAHAVGLASHQPPASPVAAAAAAPGGPMRHNSYPSGFEPPPSVAPYDFPADPSKKQRKQRAKKQPGEEPPAGRGKGGKKGRGAGAVGAAAAGGRKSAGGAGENPFGMDPMRPPMLQRSSSEQHNPNPHQMSQYQMQQYQQNQQFRMHQMQQQQQQQFQMQSPKNPLVPAYTDEDSDEECDPPPPPKPQVSTSSRMSSVPSHPPPPPQQLGNPMVGYPGMPLQSPNHLPLTPSPLSAPPKPFSPEQQHHFGMKMRETSYWKELERLETKPDVEKLKQQLSSSSSSSQAEASDPPSTSTEAQDPPKPSSSSAPPPPKKKLGLEAAISKIRGQQEQALQKQLQQQESVESELATPHPGSSGAPPLAPHQVNRARNLNDIFDDEADDSSPTADIKPSLQALQKPTDTSSQSTSSEPPPKKEPADEQPEREKEKLILKIPKMLKPVVDDRREDRKERDRDRDRDRDRDEDREKVRDKEDKAQREKDKKEKERERRRQRDRDRTEQKKSDREKEPSKKRKLEKKDEKEKDRREPERKKGKSDGKEYSKASTTSLIPTLSLKNFRIPKKDTVEEEKKDVKEEAPGPSSSTESKKEPPSAAPITRKESTTAPVAPAVQQQQQRKESFTALPSLPEQQQHHREPLLKKKPPLQPPPPPQMTGPPIGIYPGPPAPGNLPGSSRPSGNRKQPLPPPPPMIRGPPPDQMYRDRSGGGGGSMRGGFPPASHYHGGTSGVNKQVASYAQGLPPGMGPPVVKPHGNNYQASQWVRPPTHRDSSHSYHGMPSLGPPQLQREPPAPPPPQMIPLPKDPPVLREHPREHRAHRGGADDDGPDSPEEGTLRIDDE”, for which the “soluble on expression in E. coli” value is “not soluble”.

As to “MEQIHGGDSNSGGGGGGSSRNDEISVTRASRFDALPEDCISKVISHTSPRDACVVASVSKSVKSAAQSDLVWEMFLPSEYSSLVLQSANHLSKKEIFLSLADNSVLVENGKKSFWVEKASGKKCYMLSAMELTIIWGDSPAYWKWITVPESKFEKVAELRNVCWFEVRGKISCGMLSKGTHYSVYVVFKTANGRSYGFDLVPVEAGVGFVGKVATKKSVYFESGNADSRSATSHYSGISEEEEEVEGERERGMNVVGPKERVDGWSEVELGKFYINNGGCGDDGSDEIEISIMETQNGNWKSGLIIQGIEIRPERSN”, the “soluble on expression in E. coli” value is recorded as “soluble”.

Consider “MADSTATSTPRAVPSHEDRPVYVIGGGPGGLAAAHALRAQGVRAVVLEKSDRVGASWRRHYDRLHLHTTRRLSALPGLPMPRSFGRWVSRDNVVRYLEKYVEHHQLEIVTGVEVSRVEPAPDGTGWLLHATGGRELTGSAVVVATGHNHTPHLPDWPGRDAYTGELLHAGDYRNATPHAGRDVLVVGVGNTGAEIAVDLVEGGASRVRLAVRTAPHIVRRSTAGWAAQFTGIVVRRLPVRLVDLLAGPMARLSVPDLSAQGLPRPDTGLYSRVREGSIPVQDVGLIDAVRKGRVEIVAAVDGFEDGKVVLADGNRIGPDVVIAATGYARALEDLVGHLDVLDGRGRPTVHGARTPRTAPGLYFTGFTNPISGMFRELAIDAEKIAKAVAKALARTTARTPALEHHHHHH”, for which the “soluble on expression in E. coli” value is listed as “soluble”.

Consider “MKYIVLLGDGMSDEAVKDLDGKTPLQAAKTPHMDVMARRGRIGLAHTVPKGLPPGSDVANLSVFGYDPRTCYTGRSPLEAASMGVQLGPDDVAFRVNLVNLLPTKGTLVMNDYSAGHISTEEGRELIEAIQQQIGDDEFQFYPGVGYRHLMVWRNGKSGMSATPPHDISGKSILDYLPKGEGADKLIYLMNSSQMILNNHPQYRRRLEADKIPANSIWLWGHGKAPRMEPFKEKFGLAGAVISAVDLINGIGIGAGLDVIRVEGATGYLDTNYEGKVQAALEALETHDYVYLHVEAPDEASHSGNLSHKLQAIEDFDARVVGPIMEGIRRFGSFRILCTPDHPTPLRLKTHTGAPVPFIIYDGGESEDDSIAGYDEDSARTSGLVLEEGHRLMELLLERLEHHHHHH”, for which the “soluble on expression in E. coli” value was “soluble”.

As for “MVGVMSNSSALSREFVKIEIGGKVIKGNSKVENSGDYFDGHCPQAFHAFSGIDGTVFDLINLKLRVTKHIQDLLENFFKRGEKEVKIEILRRESTKSGSAYSSFKVVYQGCRMHNMLLAHDNDSNLILELSFTPEESVSIEMNIPSDDGKSTEKLGPMTYNLYKEALV”, the “soluble on expression in E. coli” value is “not soluble”.

Turning to “MGLKDQAVTWRRYFHQFPELSDKEFKTTQKIKDILTEHHIRILDLPLATGLVAEVGQGLSCIAVRADIDALPIQELVEQDFKSENEGVMHACGHDIHMASILATAVKLKEIEGTLTGRVKFIFQSAEELGHGAFKIIETHALKDVQAVLGFHNDPSRSVGTFAIKTGAITSAVDRFEFHIKGVGGHAAKPEQCNDPVIVLAQLINSIQSIVSRNLSAFDEAVVTIGQISCGNTWNVIADHAYVQGTVRSFDPVVRKLVETRLQDIADGLAQAYNMKINLNYTHLPGAVMNDEALTHKAIAVAQHVGYKVEMMEQPLTIGEDFSGYSQHFPSVFALIGSHSEYDLHHPQYKPDERILEKVPEYFVEFVKRLLHE”, the “soluble on expression in E. coli” value is reported as “not soluble”.

On to “MRHLLDFQGWSRTEVESLLDTARVMREVLERPIKKVPALQGFTVATVFFEPSTRTRISFELAARRMSADVVSFAAQTSSLQKGESYKDTLLTLEAMGVDAYVIRADSAGVPHQATRWVKGAVINGGDGRRAHPTQALLDAYTLLEALGTLEGKKVAIVGDILHSRVARSGAELLSLLGAQVFCAGPPSLLPQSLPGAHLTPRLEEALEEADAVMVLRLQKERMEAGLVHLEDYVARYQVTEKRLALAKPQAPLLHPGPMNRDVELEGTLADSARSLVNRQVQNGVAVRMAALYHLLVGKEKA”, for which the “soluble on expression in E. coli” value is reported as “soluble”.

As for “MGSSHHHHHHGSSNILIINGAKKFAHSNGQLNDTLTEVADGTLRDLGHDVRIVRADSDYDVKAEVQNFLWADVVIWQMPGWWMGAPWTVKKYIDDVFTEGHGTLYASDGRTRKDPSKKYGSGGLVQGKKYMLSLTWNAPMEAFTEKDQFFHGVGVDGVYLPFHKANQFLGMEPLPTFIANDVIKMPDVPRYTEEYRKHLVEIFG”, the “soluble on expression in E. coli” value is given as “soluble”.

For the sequence “AQPKETILSIKDLVVKESRGLDAVKNLSLDVRAGEVVGIAGIDGNGQTELIQALAGLTKVENGSIHLNEKEITNRKPREITEMGVAHVPEDRHKYGLVLEMTLAENIGLQTYYQKPYSSTGILNYRMINKHARELIEEYDVRTPNELVPARALSGGNQQKAIIAREVDRDPDLLIVSQPTRGLDVGAIEYIHRRLIEQRDKNKAVLLVSFELDEILNVSDRIAVIHAGEIVGIVDPKETTENELGLLMAGYSLEEARAELSKVEAGETVE”, the “soluble on expression in E. coli” value was “not soluble”.

For the sequence “MSLAVLAPRVASVGVHSIDHFALEVPDLSAAKVFFGAFGLAVDETIDGLELRASASDHVWARVLKGSRKQLAYLSLNCFGDDLAALTAQVETAGGKPCAAHAGAHDPEGFWFEDPDGNRLQIRTGDKTSPGLKKAAVAAKVRRGLRGAAARHEAPAVHPTRLSHVLLFTPDIERAIQFYRDALGLKFSDGSKGIVAFMHGRHGSDHHLVAFVQSSAKGWHHSAWDVPTVEEVGLGKMQMARAGFVDGWGVGRHVLGSNHFHYVRDPWGSFCEYSADIDFVPPGVEWPSADHPPEDSLYLWGPDVPAYFIENTEAQREGHHHHHH”, the “soluble on expression in E. coli” value was “soluble”.

Turning to “MNTETSTQSAPSDTYDTSIYYNSSPRVTANDITTLTSFAAPAPQVLDYANTQYDIYRNQPAYYLPSYAPTAPTTFYSDFANFNVTRSQDFASVPAVANSSDVKPIIIKQEKSTPNATELIIQSRVDSQHEDTTTSTAGGAGVGGPRRTKFVLSVDRRKAATMRERRRLRKVNEAFEVVKQRTCPNPNQRLPKVEILRSAIDYINNLERMLQQAGKMTKIMEQNQHLQMTQQINGAPPHDYVTSSHFASSSYNPENMFDDDDLTDSDDDRDHHKLGNAVDLRRRNSLDRLSRIVASIPNEEAMTDEQLLQPANDVIDGEKKLEML”, the “soluble on expression in E. coli” value is listed as “not soluble”.

With “LWLASDLHLGPATPATAEAFLGLLQAAADEASALLLPGDIFDAWIGDDVIRAAPPWLAAVLQGIRAAAGRIPVYLGRGNRDFLIGQELADALGAHLLPEPVLLETDYGRILLTHGDEYCTDDSAYQQFRAMVRNPQWQAQFLAMSIPERLAMAEQARGESQAANQAKSMEIMDVNPASVEAALREADVDVLVHGHTHRPARHVL”, the “soluble on expression in E. coli” value is listed as “not soluble”.

With “MSIFNKDALSSFFGLSGEEDDYYDNYEEYEERKAVNEPPRRAARPKPQRPVQQQESYSQPAYTQQSEPVVEKPSARYRSAEAHQERDTQQAAYTEKKVVSMRSSNQSATTNTRRAQESTANAKTHKITIIEPRVYSEAMSIAKHLFAEEAVLVNFTLVEEDQARRIVDFLTGTVYALDGDIQRVGNEIFLCTPANMEIDSATAQSLANKQFFDFLEHHHHHH”, the “soluble on expression in E. coli” value is recorded as “not soluble”.

On to “GSASAQSRTLAGGIHATDLNDKSVQRALDFAISEYNKVINKDEYYSRPLQVMAAYQQIVGGVNYYFNVKFGRTTCTKSQPNLDNCPFNDQPKLKEEEFCSFQINEVPWEDKISILNYKCRKV”, for which the “soluble on expression in E. coli” value is on record as “soluble”.
